Usually Kd stands for the equilibrium constant for the complex coming apart. A higher Kd goes with a looser complex. The term koff denotes a measure of how fast the partners let go of each other. Low values mean slow dissociation, high ones fast dissociation.

From US20060134103A1, “Compounds and molecular complexes comprising multiple binding regions directed to transcytotic ligands” (published 2006) come the findings set out here.

Assay [1] deals with pIgR expressed in transfected MDCK cells (Examples 6 and 7).
Assay [2] deals with GST-Rat-stalk fusion protein (Schistosoma japonica; rat) (UniProt P15083). Briefly: SPR (BIAcore), D6-GST captured by immobilized anti-GST antibody, 1:1 Langmuir global fit. In general terms: SPR reads the build-up and loss of mass on a sensor chip optically.
Assay [3] addresses T1, GST-Human-stalk fusion protein (Schistosoma japonica; human, UniProt P01833).
T1 chain: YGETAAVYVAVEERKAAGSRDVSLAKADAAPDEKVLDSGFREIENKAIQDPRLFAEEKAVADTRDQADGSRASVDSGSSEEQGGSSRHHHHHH
Described as above.

B1: sFv5AF-Cys purified dimer (scFv)
scFv: DYKAKQVQLVQSGGGVVQPGRSLRLSCAASGFTFSSYAMHWVRQAPGKGLEWVSAISGSGGSTYYADSVKGRFTISRDNAKNSLYLQMNSLRAEDTAVYYCARDTRGYFDLWGRGTLVTVSSGGGGSGGGGSGGGGSSELTQDPAMSVALGQTVRITCQGDSLRKYHASWYQQRPRQAPRLVVYGKNERPSGIPERFSGSTSGDTASLTISGLQAEDEADYYCHSRDSNADLVVFGGGTKVTVLGAAAEQKLISEEDLNGAAHHHHHH
As for B1, in assay [1], the apical to basolateral (reverse) transcytosis after 16 hours was 10% and the basolateral to apical (forward) transcytosis after 16 hours is under 10%. Further, in assay [2], the Ka amounted to 5.01e+08 M⁻¹ and the dissociation constant Kd worked out at 2 nM. In assay [3], the Ka turned out to be 5.02e+08 M⁻¹ and binding was put at a Kd of 1.99 nM.

B2: sFv5AF-Cys (starting material, mixture of monomer and dimer) (scFv)
scFv: B1 scFv
Consider B2, for which, in assay [2], the Ka turned out to be 4.36e+08 M⁻¹ and the equilibrium dissociation constant (Kd) turned out to be 2.3 nM. In assay [3], this molecule came in with a Ka of 6.71e+08 M⁻¹, a Kd of 1.49 nM and a koff of 0.00145 s⁻¹.

B3: sFv5AF-Cys purified monomer (scFv)
scFv: B1 scFv
As to B3, the apical to basolateral (reverse) transcytosis after 16 hours in assay [1] was under 5%. For the same molecule, in assay [2], the Ka amounted to 1.77e+08 M⁻¹ and the Kd was 5.63 nM. In assay [3], this molecule displayed a Ka of 1.77e+08 M⁻¹, a Kd of 5.64 nM and a koff of 0.00241 s⁻¹.
